Measured values published in patent publication US11267871B2, “Topical application for an anti-HSV antibody” (priority 2014, dated 2022).

B1: mAb hu2c: humanized derivative of murine mAb 2c recognizing glycoprotein B of HSV-1/2; CDRs grafted into DP28/DPK13, human γ1 and κ constant chains (antibody, V domains shown)
VH: QVTLKESGPALVKPTQTLTLTCTFSGFSLSTSGMSVGWIRQPPGKALEWLAHIWWNNDKYYKPALKSRLTISKDTSKNQVVLTMTNMDPVDTATYYCARIYYGYRPYAMDYWGQGTLVTVSS
VL: DIVMTQTPLSLPVTPGEPASISCRSSQSIVHSNGNTYLEWYLQKPGQSPQLLIYKVSNRFSGVPDRFSGSGSGTDFTLKISRVEAEDVGVYYCFQGSHVPWSFGQGTKVEIKR
modifications: VH of the humanized mAb hu2c antibody; VL of the humanized mAb hu2c antibody
notes: humanized derivative of murine mAb 2c recognizing glycoprotein B of HSV-1/2; CDRs grafted into DP28/DPK13, human γ1 and κ constant chains

Tests used:
[1] = system: recurrent herpes labialis; details: 5 times per day for 4 days, cited from earlier work
HSV-2 G = assay: Topical treatment of acute genital HSV-2 infection in immunodeficient mice (survival, clinical score); type: in vivo, mice (NOD.CB17-Prkdc^scid/NCrHsd); details: for mice with acute genital HSV-2 infection / local genital symptoms resolved at 48 h (number) / mice with acute genital HSV-2 infection / local genital symptoms resolved at 48 h (percent): 48 h after start of topical treatment, ACV 1 mg twice per day ongoing; for mice with acute genital HSV-2 infection / local genital symptoms resolved at 48 h (number) / mice with acute genital HSV-2 infection / local genital symptoms resolved at 48 h (percent) / mice in which HSV-2 lethal encephalitis was prevented: hu2c single 200 μg; for mice in which HSV-2 lethal encephalitis was prevented: topical, ACV 1 mg twice per day for 4 days
Protocol: FIG. 1: compares the survival of immunodeficient mice with acute genital HSV-2 infection after topical treatment either with the humanized monoclonal antibody hu2c or acyclovir. Female mice (NOD.CB17-Prkdc^scid/NCrHsd) were treated with a long-acting progestin (Depo-Clinovir, Pharmacia) 7 days prior to viral challenge to increase susceptibility to HSV-2 infection and to eliminate differences caused by the estrous cycle. Anesthetized mice were vaginally challenged with a lethal dose of 5×10^5 PFU of HSV-2 G (20 μl). Mice displaying visible infection (perineal hair loss, reddening, swelling) were treated one day after viral challenge (A) once with 40 μl hu2c (5 mg/ml) (●) or 40 μl control IgG (5 mg/ml) (□) or (B) twice daily for 4 days with 40 μl ACV (25 mg/ml) (Δ) or 40 μl PBS (x). Drug solutions or PBS were applied topically to the outer genital epithelium. Mice were monitored for 36 days after viral inoculation. Mice displaying sever systemic signs and/or severe lesions/zoster were killed. Surviving mice were sacrificed at day 36. Test groups contained eight animals each, control groups contained five animals each. Kaplan-Meier survival curves were analyzed by log-rank (Mantel-Cox) test. Two-tailed significance tests were used to compare the significance level between two groups. All protocols were approved by the Animal Care and Use Committee.
Mice displaying visible infection (perineal hair loss, reddening, swelling) one day after intravaginal challenge with a lethal dose of 5×10^5 PFU of HSV-2 G (20 μl) were treated (A & C) twice daily for 4 days with (A) 40 μl PBS or (C) 40 μl ACV (25 mg/ml), or treated (B & D) once at 24 h post infection with (B) 40 μl hu2c (5 mg/ml) or (D) 40 μl control IgG (5 mg/ml). Drug solutions or PBS were applied topically to the outer genital epithelium.
Infected animals were observed daily and their clinical status was scored as follows: 0, lack of symptoms, no lesions; 1-2, redeness and/or swelling (erosion); 3, localized lesion <1 mm; 4-5, localized lesion 2-3 mm; 6-7 localized lesion 4-5 mm; 8-9, severe hyperemia, destruction of the epithelium and stroma with necrosis; 10, systemic signs, death. Animals with grading >8 were killed to prevent undue suffering. Test groups contained eight animals each, control groups contained five animals each. Arrows indicate time points of treatment.
• The ability of the humanized monoclonal antibody hu2c to alter the clinical course of acute genital HSV-2 infection in immunodeficient mice following a single topical treatment with 200 μg mAb hu2c (5 mg/ml) was investigated. To infect 100% of mice as assessed by visible lesions and culture of vaginal lavage, a viral inoculum of 5×10^5 PFU of HSV-2 G was delivered to the vagina of anesthetized mice. • Although acute HSV-1 or HSV-2 infections result in a fatal outcome in 100% of mice with severe combined immunodeficiency when compared to 70-90% mortality in immunocompetent mice, the immunodeficient model has nevertheless been chosen to discriminate a possible clinical efficacy of the therapy from an elimination of the viral infection due to immune effector cells of the mouse (Minagawa et al., Arch Virol 103, 73-82 (1988); Nagafuchi et al., J Gen Virol 44, 715-723 (1979)). Within genital mucosa the expansion rates of HSV-2 are extremely rapid. At 24 h after viral challenge infected mice received topically at the infected area either twice per day for 4 days 1 mg acyclovir (ACV) (25 mg/ml) or 40 μl buffer (PBS) or a single treatment of 200 μg mAb hu2c (5 mg/ml) or 200 μg control mAb (5 mg/ml). Clinical efficacy of the HSV-specific mAb was compared to the irrelevant mAb (isotypcontrol), ACV and PBS treatment by means of Kaplan-Meier survival curves and daily assessment of the clinical status of the mucous membranes of the genital and anal area. […]

[2] = system: oral herpes infection (HSV-1 or HSV-2, type not analyzed); assay: Topical application of humanized anti-HSV antibody in volunteers with acute recurrence of oral herpes (cold sores); type: in vivo, human
Protocol: 1.2 Trial Description • Between 2010-2013, twelve healthy 30-59 year old volunteers (7 female, 5 male) with an acute recurrence of oral herpes infection (cold sores) were treated. Volunteers presented themselves when the onset of initial HSV symptoms (itching of the lips, burning or tingling near the lips or mouth area) occurred or had progressed to visible skin disorders on the outer lips. […] However, sometimes HSV-2 is spread to the mouth during oral sex, causing oral herpes. The type of HSV infection (HSV-1 or HSV-2) was not analyzed. • The antibody was packaged as sterile solutions either in PBS or PBS/ash créme (1:1) at concentrations of 0.7-1 mg/ml. Participants applied approx. 10 μl of the antibody topically once, once per day for two days or for a total of three times maximum.
2. Results • ZOVIRAX Cream had been evaluated in 2 double-blind, randomized, placebo (vehicle)-controlled trials (see Zovirax N-. Zovirax Prescribing Information. http://wwwaccessdatafdagov/drugsatfda_docs/label/2002/21478_zovirax_Ib|pdf#page=1&zoom=auto,0,792). • In the Zovirax studies, subjects were instructed to initiate treatment within 1 hour of noticing signs or symptoms and continue treatment for 4 days, with application of study medication 5 times per day. […] At time of treatment several small blisters were visible. For the antibody treated HSV infection a quick recovery was observed.

[3] = 72 h after commencement of ACV treatment
[4] = one volunteer, upper lip, antibody three times

| Molecule | reduction of episode duration compared with placebo [1] [days] | mean duration of the recurrent herpes labialis episode ([1]; placebo 5 days) [days] | mice with acute genital HSV-2 infection / local genital symptoms resolved at 48 h (number) (HSV-2 G) | mice with acute genital HSV-2 infection / local genital symptoms resolved at 48 h (percent) (HSV-2 G) [%] | mice with no local signs at 72 h (number) (HSV-2 G; [3]) | mice with no local signs at 72 h (percent) (HSV-2 G; [3]) [%] | mice in which HSV-2 lethal encephalitis was prevented (HSV-2 G) | spread of the infected area upon treatment ([2]; all participants) | fast symptom and pain relief after application ([2]; all participants, approx. 10 μl of 0.7-1 mg/ml, one to three applications) [h] | overall rates of clinical reactivation (participants' impression) ([2]; human, in vivo) | occurrence of lesions ([2]; one volunteer, upper lip) | time to disappearance of blisters [2, 4] [h] | time until swelling subsided [2, 4] [h] | healing when treatment started at stage of visible external herpetic lesions ([2]; participants' report) | course of active blisters ([2]; participants' report or one volunteer with upper lip (antibody) and lower lip (Zovirax)) | time to elimination of the infection ([2]; topical administration, acute infection of the tissue of the lips) [h] |
| --- | --- | --- | --- | --- | --- | --- | --- | --- | --- | --- | --- | --- | --- | --- | --- | --- |
| Nc1nc(=O)c2ncn(COCCO)c2[nH]1 [ACV, 2-Amino-9-(2-hydroxyethoxymethyl)-3H-purin-6-on] | 0.5 | 4.5 | 1 out of 8 | 13 | 5 out of 8 | 63 | 1 out of 8 | – | – | – | – | – | – | – | – | – |
| B1 | – | – | 7 out of 8 | 88 | – | – | 1 out of 8 | did not spread | ≤ 24 | tend to be reduced | no lesions occurred | ≤ 24 | ≤ 48 | rapid healing and disappearance of crusted areas | regressed and did not turn into weeping blisters | ≤ 24 |
